{"source": "patent US10941197", "about": "(dated 2021)", "binders": {"B1": {"name": "M71 (designed binder)", "chain 1": "EVQLVQSGAEVKKPGESLKISCKGSGYSFTSYWISWVRQMPGKGLEWMGIIYPGDSYTRYSPSFQGQVTISADKSISTAYLQWSSLKASDTAMYYCARVPVSPAYLDY", "chain 2": "not shown"}, "B2": {"name": "M54 (designed binder)", "chain 1": "EVQLVQSGAEVKKPGESLKISCKGSGYSFTSYWISWVRQMPGKGLEWMGIIYPGDSYTRYSPSFQGQVTISADKSISTAYLQWSSLKASDTAMYYCARGSVFEAYFDY", "chain 2": "not shown"}, "B3": {"name": "M55 (designed binder)", "chain 1": "EVQLVQSGAEVKKPGESLKISCKGSGYSFTSYWISWVRQMPGKGLEWMGIIYPGDSYTRYSPSFQGQVTISADKSISTAYLQWSSLKASDTAMYYCARGSVFEAYFDY", "chain 2": "not shown"}, "B4": {"name": "M64 (designed binder)", "chain 1": "EVQLVQSGAEVKKPGESLKISCKGSGYSFTSYWISWVRQMPGKGLEWMGIIYPGDSYTRYSPSFQGQVTISADKSISTAYLQWSSLKASDTAMYYCARVPVSPAYLDY", "chain 2": "not shown"}, "B5": {"name": "M69 (designed binder)", "chain 1": "EVQLVQSGAEVKKPGESLKISCKGSGYSFTSYWISWVRQMPGKGLEWMGIIYPGDSYTRYSPSFQGQVTISADKSISTAYLQWSSLKASDTAMYYCARVPVSPAYLDY", "chain 2": "not shown"}, "B6": {"name": "M42 (designed binder)", "chain 1": "EVQLVQSGAEVKKPGESLKISCKGSGYSFTSYWISWVRQMPGKGLEWMGIIYPGDSYTRYSPSFQGQVTISADKSISTAYLQWSSLKASDTAMYYCARGSVFEAYFDY", "chain 2": "not shown"}}, "key": {"[1]": {"target": "T1, cyno OSM (cynomolgus)", "T1 chain": "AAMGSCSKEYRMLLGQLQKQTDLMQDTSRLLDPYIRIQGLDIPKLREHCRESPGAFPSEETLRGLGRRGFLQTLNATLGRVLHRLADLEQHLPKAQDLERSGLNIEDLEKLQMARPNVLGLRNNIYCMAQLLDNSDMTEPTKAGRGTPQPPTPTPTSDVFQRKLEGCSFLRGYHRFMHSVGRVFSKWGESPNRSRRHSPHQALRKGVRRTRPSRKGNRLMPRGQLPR", "assay": "SPR"}, "[2]": {"target": "T2, human OSM (human)", "T2 chain": "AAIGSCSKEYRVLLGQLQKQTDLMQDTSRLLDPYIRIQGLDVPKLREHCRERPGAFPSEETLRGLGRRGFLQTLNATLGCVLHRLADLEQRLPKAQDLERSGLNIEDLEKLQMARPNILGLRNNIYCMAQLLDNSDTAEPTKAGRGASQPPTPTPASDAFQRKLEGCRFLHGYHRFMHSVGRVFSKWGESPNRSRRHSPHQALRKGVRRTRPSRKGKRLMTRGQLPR", "assay": "SPR"}}, "data": [{"binder": "B1", "values": [{"measurement": "Kd", "setting": "[1]", "result": 0.108, "unit": "nM"}, {"measurement": "Kd", "setting": "[2]", "result": 0.105, "unit": "nM"}]}, {"binder": "B2", "values": [{"measurement": "Kd", "setting": "[1]", "result": 0.057, "unit": "nM"}, {"measurement": "Kd", "setting": "[2]", "result": 0.053, "unit": "nM"}]}, {"binder": "B3", "values": [{"measurement": "Kd", "setting": "[1]", "result": 0.058, "unit": "nM"}, {"measurement": "Kd", "setting": "[2]", "result": 0.054, "unit": "nM"}]}, {"binder": "B4", "values": [{"measurement": "Kd", "setting": "[1]", "result": 0.023, "unit": "nM"}, {"measurement": "Kd", "setting": "[2]", "result": 0.095, "unit": "nM"}]}, {"binder": "B5", "values": [{"measurement": "Kd", "setting": "[1]", "result": 0.062, "unit": "nM"}, {"measurement": "Kd", "setting": "[2]", "result": 0.045, "unit": "nM"}]}, {"binder": "B6", "values": [{"measurement": "Kd", "setting": "[1]", "result": 0.516, "unit": "nM"}, {"measurement": "Kd", "setting": "[2]", "result": 0.484, "unit": "nM"}]}]}
